Biological target: T1, recombinant NRPD1 fused at its C-terminus to a FLAG epitope tag (Arabidopsis thaliana, UniProt Q9LQ02 1-1453)
T1 sequence: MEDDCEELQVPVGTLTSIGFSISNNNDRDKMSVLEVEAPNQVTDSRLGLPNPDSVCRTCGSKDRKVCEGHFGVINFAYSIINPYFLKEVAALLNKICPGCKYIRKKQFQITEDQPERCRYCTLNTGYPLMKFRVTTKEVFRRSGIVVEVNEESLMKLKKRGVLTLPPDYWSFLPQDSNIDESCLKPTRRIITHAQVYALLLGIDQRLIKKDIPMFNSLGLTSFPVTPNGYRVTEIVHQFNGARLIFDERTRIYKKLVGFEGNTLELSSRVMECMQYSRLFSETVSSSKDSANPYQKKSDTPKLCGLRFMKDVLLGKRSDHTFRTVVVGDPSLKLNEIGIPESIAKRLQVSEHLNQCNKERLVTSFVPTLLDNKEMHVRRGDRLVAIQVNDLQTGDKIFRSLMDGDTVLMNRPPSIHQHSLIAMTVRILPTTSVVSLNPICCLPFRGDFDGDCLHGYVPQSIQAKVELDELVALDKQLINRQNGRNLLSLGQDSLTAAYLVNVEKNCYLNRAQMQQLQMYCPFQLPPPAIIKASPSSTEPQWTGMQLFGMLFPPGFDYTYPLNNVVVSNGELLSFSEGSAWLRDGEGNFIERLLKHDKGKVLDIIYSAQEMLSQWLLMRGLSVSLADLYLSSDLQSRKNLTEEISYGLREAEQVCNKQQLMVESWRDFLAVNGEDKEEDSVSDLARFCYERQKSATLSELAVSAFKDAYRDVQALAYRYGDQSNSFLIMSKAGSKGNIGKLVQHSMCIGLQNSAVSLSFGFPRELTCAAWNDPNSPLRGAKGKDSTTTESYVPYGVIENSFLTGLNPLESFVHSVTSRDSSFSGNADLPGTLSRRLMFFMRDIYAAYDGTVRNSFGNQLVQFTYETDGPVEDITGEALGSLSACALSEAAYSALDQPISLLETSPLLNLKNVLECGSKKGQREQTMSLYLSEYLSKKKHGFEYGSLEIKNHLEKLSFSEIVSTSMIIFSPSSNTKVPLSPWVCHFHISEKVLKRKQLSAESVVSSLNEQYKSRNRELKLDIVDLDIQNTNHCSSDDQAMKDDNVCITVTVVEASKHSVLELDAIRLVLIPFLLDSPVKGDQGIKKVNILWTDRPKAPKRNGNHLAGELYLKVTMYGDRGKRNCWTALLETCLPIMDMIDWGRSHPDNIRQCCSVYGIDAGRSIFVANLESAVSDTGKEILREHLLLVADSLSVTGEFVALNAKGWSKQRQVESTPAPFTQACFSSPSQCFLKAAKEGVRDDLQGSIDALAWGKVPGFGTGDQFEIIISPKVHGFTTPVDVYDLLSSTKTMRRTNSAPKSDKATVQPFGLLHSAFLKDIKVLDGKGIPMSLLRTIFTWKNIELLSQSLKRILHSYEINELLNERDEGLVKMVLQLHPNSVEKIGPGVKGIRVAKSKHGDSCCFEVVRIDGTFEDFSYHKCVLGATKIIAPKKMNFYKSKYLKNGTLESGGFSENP
Assay: co-IP

B1: recombinant RDR2 (RNA-DEPENDENT RNA POLYMERASE 2), wild type, with N-terminal V5 epitope and 6xHis tags (enzyme)
chain: MVSETTTNRSTVKISNVPQTIVADELLRFLELHLGEDTVFALEIPTTRDNWKPRDFARVQFTTLEVKSRAQLLSSQSKLLFKTHNLRLSEAYDDIIPRPVDPRKRLDDIVLTVGFPESDEKRFCALEKWDGVRCWILTEKRRVEFWVWESGDCYKIEVRFEDIIETLSCCVNGDASEIDAFLLKLKYGPKVFKRVTVHIATKFKSDRYRFCKEDFDFMWIRTTDFSGSKSIGTSTCFCLEVHNGSTMLDIFSGLPYYREDTLSLTYVDGKTFASAAQIVPLLNAAILGLEFPYEILFQLNALVHAQKISLFAASDMELIKILRGMSLETALVILKKLHQQSSICYDPVFFVKTQMQSVVKKMKHSPASAYKRLTEQNIMSCQRAYVTPSKIYLLGPELETANYVVKNFAEHVSDFMRVTFVEEDWSKLPANALSVNSKEGYFVKPSRTNIYNRVLSILGEGITVGPKRFEFLAFSASQLRGNSVWMFASNEKVKAEDIREWMGCFRKIRSISKCAARMGQLFSASRQTLIVRAQDVEQIPDIEVTTDGADYCFSDGIGKISLAFAKQVAQKCGLSHVPSAFQIRYGGYKGVIAVDRSSFRKLSLRDSMLKFDSNNRMLNVTRWTESMPCFLNREIICLLSTLGIEDAMFEAMQAVHLSMLGNMLEDRDAALNVLQKLSGENSKNLLVKMLLQGYAPSSEPYLSMMLRVHHESQLSELKSRCRILVPKGRILIGCMDEMGILEYGQVYVRVTLTKAELKSRDQSYFRKIDEETSVVIGKVVVTKNPCLHPGDIRVLDAIYEVHFEEKGYLDCIIFPQKGERPHPNECSGGDLDGDQFFVSWDEKIIPSEMDPPMDYAGSRPRLMDHDVTLEEIHKFFVDYMISDTLGVISTAHLVHADRDPEKARSQKCLELANLHSRAVDFAKTGAPAEMPYALKPREFPDFLERFEKPTYISESVFGKLYRAVKSSLAQRKPEAESEDTVAYDVTLEEAGFESFIETAKAHRDMYGEKLTSLMIYYGAANEEEILTGILKTKEMYLARDNRRYGDMKDRITLSVKDLHKEAMGWFEKSCEDEQQKKKLASAWYYVTYNPNHRDEKLTFLSFPWIVGDVLLDIKAENAQRQSVEEKTSGLVSI
  binding result: binds
